Test results published in patent US20040072238A1 (Kyowa Kirin, published 2004).

How the values were obtained:
human IGF-I (Peprotech) = target: T1, human IGF-I (Peprotech) (human, UniProt P05019 49-118); test: far-Western: COS-1 cell lysate on PVDF membrane, probed with 2 µg/ml human IGF-I, detected with anti-human IGF-I monoclonal antibody
T1 construct: Bought reagent; also called IGF-1
Description: (§1) To investigate the binding affinity of the proteins encoded by C-hsi13412 and C-kaia397 to IGF, analysis by far-Western (Molecular Cloning—A Laboratory Manual, Third Edition, Cold Spring Harbor Laboratory; Protein Experiment Protocol 1, Shujunsha) was carried out using the cell lysates of COS-1/C-hsi13412 cell line, COS-1/C-kaia397, and, as a control, COS-1/mock cell line obtained in Example 8.
(§2) A 5 μl aliquot of the cell lysates of COS-1/mock cell line, COS-1/C-hsi13412 cell line, and COS-1/C-kaia397 cell line was placed into each lane, and according to Example 14, SDS-PAGE was carried out, transferred to a PVDF membrane, and then blocked. Subsequently, 2 μg/ml human IGF-I (Peprotech), 2 μg/ml human IGF-II (Peprotech), or 2 μg/ml of human insulin (Sigma) diluted with the blocking solution was enclosed with the membrane, and was allowed to react at room temperature overnight. Next, anti-human IGF-I monoclonal antibody (Upstate Biotechnology), anti-human IGF-II monoclonal antibody (Upstate Biotechnology), or anti-human insulin polyclonal antibody (Santa Cruz) were added to each of the membranes to a concentration of 2 μg/ml, and was left standing at room temperature for 1 hour. After the membrane was washed well with Tween-TBS, detection was carried out using peroxiase-labeled rabbit anti-mouse immunoglobulin (DAKO) diluted 2,000 times as the secondary antibody.

human insulin (Sigma) = target: T2, human insulin (Sigma) (human, UniProt P01308 25-54; P01308 90-110); test: far-Western: COS-1 cell lysate on PVDF membrane, probed with human insulin, detected with anti-human insulin polyclonal antibody
T2 construct: Bought reagent
T2 sequence (P01308 25-54 limits assumed, chain 1 of 2): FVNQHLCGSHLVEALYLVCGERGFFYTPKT
T2 sequence (P01308 90-110 limits assumed, chain 2 of 2): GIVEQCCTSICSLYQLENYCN
Description: as §1, §2

human IGF-II (Peprotech) = target: T3, human IGF-II (Peprotech) (human, UniProt P01344 25-91); test: far-Western: COS-1 cell lysate on PVDF membrane, probed with 2 µg/ml human IGF-II, detected with anti-human IGF-II monoclonal antibody
T3 construct: Bought reagent; also called IGF-2
T3 sequence (P01344 25-91 limits assumed): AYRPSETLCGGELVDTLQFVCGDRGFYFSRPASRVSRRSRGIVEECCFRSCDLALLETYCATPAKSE
Description: as §1, §2

T1 sequence (P05019 49-118 limits assumed): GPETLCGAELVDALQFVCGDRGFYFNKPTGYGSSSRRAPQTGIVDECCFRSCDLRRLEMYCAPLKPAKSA

B1: protein encoded by C-kaia397 with FLAG marker peptide at the C-terminus, expressed in COS-1 cells (COS-1/C-kaia397 cell line) (other, not shown: small tags and cut ends)
chain: RPSPGPDYLRRGWMRLLAEGEGCAPCRPEECAAPRGCLAGRVRDAGGCCWECANLEGQLCDLDPSAHFYGHCGEQLECRLDTGGDLSRGEVPEPLCACRSQSPLCGSDGHTYSQICRLQEAARARPDANLTVAHPGPCESDWMPLLGHAILRPPAFTPRAPDRVTSI
notes: Tested as COS-1 cell lysate or culture supernatant, not purified
binding result (human IGF-I (Peprotech)): binds
binding result (human insulin (Sigma)): no binding (tested: 2 µg/ml)
binding result (human IGF-II (Peprotech)): binds
